Measured values from patent US20220073907A1, “TAGLESS ENCODED CHEMICAL LIBRARY” (NANNA THERAPEUTICS LIMITED, priority 2016, published 2022).

B1: RNase A: enzyme which cleaves its associated RNA linker in a scarless manner; stock 10 mg/ml (protein, UniProt P61823 27-150, looked up)
Ribonuclease pancreatic: KETAAAKFERQHMDSSTSAASSSNYCNQMMKSRNLTKDRCKPVNTFVHESLADVQAVCSQKNVACKNGQTNCYQSYSTMSITDCRETGSSKYPNCAYKTTQANKHIIVACEGNPYVPVHFDASV
B2: RNase T1: enzyme which cleaves its associated linker in a scarless manner; stock 10 mg/ml (protein, UniProt P00651 27-130, looked up)
Guanyl-specific ribonuclease …: ACDYTCGSNCYSSSDVSTAQAAGYQLHEDGETVGSNSYPHKYNNYEGFDFSVSSPYYEWPILSSGDVYSGGSPGADRVVFNENNQLAGVITHTGASGNNFVECT

Legend:
[1] = test system: cleavable oligonucleotide; experiment: Enzymatic release of BHQ-1 quencher from FITC-labelled cleavable oligonucleotide, denaturing gel; assay type: biochemical; conditions: 10-fold serial dilutions of stock enzyme from 10^−2 to 10^−5 in 10 mM Tris-HCl pH 7.5, 1 mM EDTA; 150 nM cleavable oligonucleotide
Text: Referring now to FIG. 4, to show cleavage of the linker and release of the pharmacore oligonucleotides were made which incorporated a fluorophore (FITC, shown as F in FIG. 4) 5′ to the cleavable linker within the sequence of the cleavable oligonucleotide. A quencher molecule, BHQ-1, was then attached to the cleavable linker. This can be released by cleavage in the same manner as any chemical structure used in library generation. Light up of the oligonucleotide is seen when the quencher is removed from the cleavable linker.
Three different enzymes have been identified which cleave their associated linkers in a scarless manner (RNase A, RNase T1 A and RNase 1 A; labelled as enzymes A, B and C respectively in FIG. 4). All 3 were tested with their compatriot linkers. In each case 10 μl reactions were set up; 10 mM Tris-HCl, 1 mM EDTA, 150 nM cleavable oligonucleotide 0.1 μl of stock enzyme (RNase A=10 mg/ml, RNase T1=10 mg/ml RNase 1=1.5 mg/ml) then to 10 μl with nuclease free water. Samples were incubated for 15 minutes at 37° C. and then 10 μL denaturing loading dye added (95% formamide, 0.1% xylene cyanole, 0.1% Bromophenol Blue, 20 mM Tris-HCl pH 7.5). Samples were boiled for 2 minutes at 95° C. and then rapidly cooled to 4° C. at 4° C./s. These samples were then loaded onto a denaturing TBE-gel (12.5% polyacrylamide, 7M Urea). The gel was run at 150V for 75 minutes and the imaged using a Syngene Ingenius3 system exciting the FITC. Release of the quencher means the fluorophore can be seen and imaged as ‘light up’. This is seen as appearance of yellow DNA band in the presence of enzyme. By staining with SyBr gold (Thermo) DNA can be seen and this is again quenched when quencher is present but the size shift corresponding to the change in mass can be seen as well as increased signal (grey scale image below fluorophore, FIG. 4). In both cases we can see release only occurs in the presence of the enzymes and is rapid (<15 minutes). […]

[2] = test system: cleavable oligonucleotide; experiment: Enzymatic release of payload from cleavable linker in 100 μm aqueous droplets; assay type: biochemical; conditions: 10 μl stock RNase A (10 mg/ml) per 1 ml aqueous phase, 37° C. for 15 minutes, 100 μm droplets
Experimental: We also confirmed that the enzymes function in the droplet environment (see FIG. 5). Results are shown for RNase A. 1 ml of aqueous phase was set up using 10 mM Tris-HCl, 1 mM EDTA, 150 nM cleavable oligonucleotide 10 μl of stock RNase A (10 mg/ml) then to 1 ml with nuclease free water. Droplets of […] mean diameter were made using a 100 μm etch depth chip with the aqueous phase as described above and the oil phase comprising of PSF-2 cST oil (Clearco Products Inc.) with 2% w/v Gransurf G67 (Grant Industries Inc.) Droplets were incubated with and without enzyme at 37° C. for 15 minutes and them imaged under a Floid fluorescence microscope illuminating at 482/18 nm and emission filters of 532/59 nm.

[3] = test system: Jurkat cells; experiment: Effect of RNaseA in the cell mixture on cellular growth; assay type: cell-based; conditions: 0.1 μg/ml in the cell mixture
Text: DNA guides assembly of monomers—were synthesised using conventional chemistry the RNA tags were synthesised in advance by IDT. The last 3 nucleotides contain phosphorothioate linkages to prevent cleavage by exonucleases. Individual reagents are then tagged with a guide to a specific RNA specific to a unique sequence incorporated into the guide oligonucleotide (100 unique monomers can be assembled, assuming up to 4 guide sequences into over 100,000,000 unique compounds). […] 1) Beads are packed into a column (each bead is clonal with a unique DNA sequence to guide assembly but μM concentrations of this clonal guide on each bead) and at 20 μM 200 million can be present per ml of bead volume. 2) A pool of monomers and appropriate reagents are then washed onto the column and reactions allowed to proceed, the column can be washed and new reaction chemistry added as needed (note fresh monomers can also be added). 3) Chemical synthesis varies with monomers used (see example 2, section 4). 4) Finally the beads are washed with 10 column volumes of TE with 100 mM NaCl and then 2 column volumes of appropriate media for growth of cells in the phenotypic screen e.g. RPMI. 5) Beads are then collected in the growth media and ready for encapsulation with target cells. […]

[4] = test system: RNA guides; experiment: RNaseA cleavage of RNA guides in growth media; assay type: biochemical

Row | Molecule | dilution of the enzyme at which activity is seen [1] | light up (quencher release) in droplets [2] | effect on cellular growth [3] | duration of enzyme activity in growth media ([4]; 0.1 μg/ml, growth media tested) | time for cleavage of RNA guides ([4]; in RPMI, lysogeny broth, tryptic soy broth and DMEM) [min]
1 | RNase 1: enzyme which cleaves its associated linker in a scarless manner; stock 1.5 mg/ml | 10^−3 |  |  |  | 
2 | B1 | 10^−4 | light up occurs in droplets in the presence of enzyme | doesn't affect cellular growth | at least 48 h | 15 to 20
3 | B2 | 10^−3 |  |  |  | 
